Assay results as given in publication PMC2533787 (The Journal of Biological Chemistry, 2008).

Assays:
[1] = molecular target: Full-length recombinant human TSG-6 (human, UniProt P98066 18-277); assay: SPR
[2] = molecular target: CUB_C_TSG6 (the CUB domain and C-terminal 27 amino acids of human TSG-6) (human, UniProt P98066 129-277); assay: SPR
Sequence of CUB_C_TSG6 (the CUB domain and C-terminal 27 amino acids of human TSG-6) (P98066 129-277): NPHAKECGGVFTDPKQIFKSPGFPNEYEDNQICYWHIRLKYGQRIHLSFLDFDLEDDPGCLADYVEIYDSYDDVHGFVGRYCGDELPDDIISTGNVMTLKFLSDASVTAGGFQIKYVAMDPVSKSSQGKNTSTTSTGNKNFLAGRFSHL

Sequence of Full-length recombinant human TSG-6 (P98066 18-277): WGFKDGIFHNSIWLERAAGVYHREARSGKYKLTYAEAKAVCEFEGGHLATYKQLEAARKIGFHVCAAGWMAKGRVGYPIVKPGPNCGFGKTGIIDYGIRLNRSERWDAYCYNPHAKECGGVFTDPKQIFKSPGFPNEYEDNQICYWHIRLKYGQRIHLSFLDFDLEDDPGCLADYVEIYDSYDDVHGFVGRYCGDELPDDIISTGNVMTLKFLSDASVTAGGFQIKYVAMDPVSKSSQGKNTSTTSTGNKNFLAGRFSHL

| Binder | Kd [1] | Kd [2] |
| --- | --- | --- |
| soluble receptor activator of NF-κB ligand (ligand, UniProt O14788 140-317, looked up) IRAEKAMVDGSWLDLAKRSKLEAQPFAHLTINATDIPSGSHKVSLSSWYHDRGWAKISNMTFSNGKLIVNQDGFYYLYANICFRHHETSGDLATEYLQLMVYVTKTSIKIPSSHTLMKGGSTKYWSGNSEFHFYSINVGGFFKLRSGEEISIEVSNPSLLDPDQDATYFGAFKVRDID | 1.97 µM | – |
| BMP-14 (ligand, UniProt P43026 382-501, looked up) APLATRQGKRPSKNLKARCSRKALHVNFKDMGWDDWIIAPLEYEAFHCEGLCEFPLRSHLEPTNHAVIQTLMNSMDPESTPPTCCVPTRLSPISILFIDSANNVVYKQYEDMVVESCGCR | 0.184 µM | 10.8 µM |
| bone morphogenetic protein-2 (ligand, UniProt P12643 283-396, looked up) QAKHKQRKRLKSSCKRHPLYVDFSDVGWNDWIVAPPGYHAFYCHGECPFPLADHLNSTNHAIVQTLVNSVNSKIPKACCVPTELSAISMLYLDENEKVVLKNYQDMVVEGCGCR | 0.22 µM | 2.54 µM |
| BMP-13 (ligand, UniProt Q6KF10 336-455, looked up) TAFASRHGKRHGKKSRLRCSKKPLHVNFKELGWDDWIIAPLEYEAYHCEGVCDFPLRSHLEPTNHAIIQTLMNSMDPGSTPPSCCVPTKLTPISILYIDAGNNVVYKQYEDMVVESCGCR | 0.236 µM | 6.88 µM |
